Test results as given in the RNAGym collection of RNA variant scans (doi:10.1073/pnas.2313332121).

B1: TPR t1 (parent)
chain: GACCAAUCUGCCCUCAGAGCUCGAGAACAUCUUCGGAUGCAGAGGAGGCAGGCUUCGGUGGCGCGAUAGCGCCAACGUCCUCAACCUCCAAUGCAUCCCACCACAUGAUGAUGCCUGAAGAGCCUUGGUUUUUUG

Variants of: B1
Experiment: polymerase ribozyme fitness, log enrichment relative to wild type (log ratio); higher = more active; in vitro selection for triplet polymerase activity
In short: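 Mutant libraries were PCR-built and transcribed for each subunit of a heterodimeric triplet polymerase ribozyme and selected for one round in triplicate at −7 °C, frozen, before gel excision of extended constructs and streptavidin-bead capture. Input and output libraries were Illumina-sequenced, keeping genotypes with ≥10 input reads and ≥1 read per output. Fitness is a logarithmic ratio of genotype to wild-type enrichment, in base 2, using inverse-variance-weighted replicate averages.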

Row | Variant | polymerase ribozyme fitness (log ratio)
1 | G10A G45A G63U C82A C85A U92C | -5.42
2 | C15U U54A C80A | -4.07
3 | C28A C72A C123G U126C | -2
4 | U7G C34U G69U C102U U106A | -0.632
5 | G44A G60U G117C | -5.36
6 | A29U C53A U129G | -2.03
7 | G17A G60U C79A | -5.25
8 | A95C U116C U129A U131C G135U | -3
9 | C4U G61U | -0.685
10 | A18C G63C C88U C97G C102U C123U | -6.68
11 | U14A C31U U32G C53G C80A C104U G120C G135U | -7.94
12 | C94G C123U | 0.403
13 | A74G A83U U106C | -0.743
14 | G52U U106A | -0.189
15 | U96C A100U | -1.08
16 | C64U G117A | -1.12
17 | U9C A43U | -0.741
18 | A29U A83U C86A C114A A118U | -3.87
19 | C62U C124U | 0.977
20 | G71A C124U | 1.42
21 | G52A C70U C86U C94A A100C C101U C114G | -5.67
22 | C8G C123A | 0.956
23 | C8U C49U C56U C70U C98A | -6.59
24 | C3A C64U G71A G110U U129G | -6.8

Row | Variant | polymerase ribozyme fitness (log ratio)
25 | C73A U87C | 0.572
26 | A6C A100U | -0.814
27 | U96C U126C | -1.7
28 | C40A C89U | -0.912
29 | A26G C123G C124U G135U | -1.25
30 | C94U C114U | -2.58
31 | G48C C62U U87G G110C U116A | -6.41
32 | C70U C85A | -2.12
33 | U30C C40U C53G C56G C62U C76A | -5.08
34 | G19A G60A C114A | -1.62
35 | C79A C115A G127C | -1.07
36 | A5G G10U C72G C86U C97U C114A | -3.98
37 | A37C G60U C82U A83U U87A | -2.34
38 | G39A C72G G113A | -2.17
39 | G122U C124G U130A | 0.942
40 | A50G C53A C72A G93C U109G | -5.37
41 | C98U U125G | -2.35
42 | C31A G57A C73U | -6.14
43 | C72A U78A | 0.142
44 | A29G G61U C85A C102U | -5.28
45 | U9A A37C G63C | -0.708
46 | C49U A95G | -1.14
47 | A41C U131G | -0.589
48 | C73U A91G C104U U112A G113U | -0.254

Row | Variant | polymerase ribozyme fitness (log ratio)
49 | A6G G61C C79A U112G C114U | -6.62
50 | C3U C70A U78C A91C C97G A121U | -6.74
51 | A66U C79U | -0.834
52 | C11A A75U C79U C85A | -2.71
53 | G57U A119G | 1.22
54 | C4A U9A C64U U96C | -0.963
55 | A6G G48A G69A U129G | -5.25
56 | A74G C80U | -1.69
57 | G36C | -1.27
58 | G36U | -1.06
59 | U33C C62U | -5.05
60 | C49A A121U | 1.97
61 | G58U A119G | 0.849
62 | A41U C72G A90C | -2.3
63 | C15A A24U C72G C76U C123G | -6.56
64 | A5G U55C C72A C73A G77U A121C | -1.86
65 | C15G G48A U78G C97U A111U | -6.43
66 | C40A U106A G113A | -3.55
67 | U96C C123G | 1.78
68 | C12U A37U A119U | -0.00616
69 | G44U C73U G113C A121G G128A | -4.53
70 | G36C A46G G63U C85U C114U | -5.92
71 | U59C G117A | -1.62
72 | C3U G57U | -0.67

Row | Variant | polymerase ribozyme fitness (log ratio)
73 | U21A G117U | -1.55
74 | U59C A66U | -1.57
75 | A43U G110C | -5.24
76 | A37U C76U | -0.3
77 | G44U G52A | -0.705
78 | C13U A50C | -0.095
79 | U9A G10A C40A U78C G110U C123U | -2.19
80 | G10U C73G | -0.976
81 | C20A A46U | -4.55
82 | U7C A37U C73A | -0.516
83 | C12A U78A | -1.37
84 | A43U A46U G71U U125A U129A | -4.93
85 | C8G C13A A16U | 0.292
86 | G61C U125G | -1.95
87 | A37U G69A G77A A90U C123U | -5.05
88 | A50U A111G U125A | -2.24
89 | A121U U125A | 1.66
90 | A26U G71A | -3.13
91 | C40A G69C A105G | -6.71
92 | G61A G128U | -2.15
93 | C34A G48U G61C C72G C94G A119G U133C | -3.16
94 | U9G U30C G120C G127A | -3.41
95 | A2G U55G G135U | -1.42
96 | A46U G120U | -0.451

Row | Variant | polymerase ribozyme fitness (log ratio)
97 | A41C G117U | -2.87
98 | C11G C85G | -1.55
99 | C28U G52U G120C | -2.81
100 | A43G G58C G60A | -2.53
101 | C73G G93C | -2.05
102 | U32C A41U G45C C115G | -5.44
103 | G19C U78C G110C | -5.42
104 | U30C G58C | -2.83
105 | U9A A91G | -0.793
106 | C11U G39C | -1.05
107 | G10A C40U G69C C123G | -0.405
108 | C56G G110U G135C | -1.62
109 | C8G C15A G51U C76U C98U | -4.46
110 | A50U U125G G127C | -3.43
111 | A37G G113C G135A | -2.17
112 | A41U C72A | -1.82
113 | C89A G117C | -4.96
114 | G44C C53U C56U C115U G117U G135A | -3.91
115 | A5C G39U C64A A68U U116C G127U | -5.8
116 | C15U C40U G61U | -0.881
117 | C11U G120U G122U | 1.38
118 | G36A G42A C72U | -4.34
119 | A2G G71U | -0.153
120 | U9G G48U C88A | -1.04

Row | Variant | polymerase ribozyme fitness (log ratio)
121 | U33G G52C C64G U78A C98A U112G U116G | -7.08
122 | C13A C53A | -0.605
123 | U7G U9A G10C A18G A29C | -4.02
124 | G61U G128A | -1.7
125 | A5C G71U C82A C101G | -2.98
126 | C15A U33A G117A | -5.68
127 | C13U G19A G45C U59C C82U U112A | 0.0802
128 | C70U C114A G128U | -4.2
129 | C12G G48A G60A G93A | -1.03
130 | U21A U130A | -0.5
131 | G19U A41U G71A | -5.44
132 | A26G U30A C104G C115A | -5.53
133 | U78G U116A | -3
134 | A84U C115G | -3.83
135 | C11U C114G | -3.54
136 | G10U G17A C56A C89G G117A | -3.05
137 | G61C G93U | -2.81
138 | G93C C102A | -2.96
139 | G39U C62U C115G | -1.99
140 | U32A C70U C115G | -5.23
141 | C49G C70U | -1.3
142 | C8A G36U C76A U131C | -1.09
143 | A108G G113A | -2.47
144 | C11U C40G C49A U55G G61A | -1.51

Row | Variant | polymerase ribozyme fitness (log ratio)
145 | U30C G44U A50G C88U | -2.96
146 | G52U G69U G71C | -1.06
147 | A100U U125G | -0.739
148 | A29G C115U U126G | -3.15
149 | G61U U96A | -0.797
150 | U7C C70U C101G | -2.79
151 | C86U U112A C123U | 0.628
152 | C11A G39C G110C | -5.5
153 | C12U C115U | -0.992
154 | C13G G52U G60A C104U C115G A121C | -3.16
155 | C53G C82A C94U U130G | -0.77
156 | C28U C62A | -2.73
157 | A27U C49U A90G G93U | -3.23
158 | C8G C40A C53G G63U U109G | -7.06
159 | C8U C72G U87G C94U G122A | -0.203
160 | G47U A68G C104U | -4.55
161 | A24U G69U C88A C114A | -6.87
162 | G47A G69C C101U G122A | -3.07
163 | C8G A18C G36U C72A U78G C82A C85G | -5.25
164 | U92A U131G | -2.59
165 | C56U C97U U106A G127U | -0.714
166 | A74U G120U | -0.788
167 | U32C G117U | -2.41
